Test results from patent US20190300577A1 (BETH ISRAEL DEACONESS MEDICAL CENTER, published 2019).
Ends that are not written are not given here.

Tests used:
[1] = biological target: T1, recombinant mouse P-selectin Fc chimera (mouse, UniProt Q01102 42-709); assay: Biacore; biotinylated glycopeptide captured on a streptavidin chip, mP-sel-Ig flowed over (trace shown at 20 µg/ml) [lower middle panel 'mP-sel-Ig (20 µg/ml)' (E in the legend]
T1 construct: also called murine P-selectin; P-sel-Ig; not shown: Ig (Fc) part of the chimera
T1 sequence (looked up): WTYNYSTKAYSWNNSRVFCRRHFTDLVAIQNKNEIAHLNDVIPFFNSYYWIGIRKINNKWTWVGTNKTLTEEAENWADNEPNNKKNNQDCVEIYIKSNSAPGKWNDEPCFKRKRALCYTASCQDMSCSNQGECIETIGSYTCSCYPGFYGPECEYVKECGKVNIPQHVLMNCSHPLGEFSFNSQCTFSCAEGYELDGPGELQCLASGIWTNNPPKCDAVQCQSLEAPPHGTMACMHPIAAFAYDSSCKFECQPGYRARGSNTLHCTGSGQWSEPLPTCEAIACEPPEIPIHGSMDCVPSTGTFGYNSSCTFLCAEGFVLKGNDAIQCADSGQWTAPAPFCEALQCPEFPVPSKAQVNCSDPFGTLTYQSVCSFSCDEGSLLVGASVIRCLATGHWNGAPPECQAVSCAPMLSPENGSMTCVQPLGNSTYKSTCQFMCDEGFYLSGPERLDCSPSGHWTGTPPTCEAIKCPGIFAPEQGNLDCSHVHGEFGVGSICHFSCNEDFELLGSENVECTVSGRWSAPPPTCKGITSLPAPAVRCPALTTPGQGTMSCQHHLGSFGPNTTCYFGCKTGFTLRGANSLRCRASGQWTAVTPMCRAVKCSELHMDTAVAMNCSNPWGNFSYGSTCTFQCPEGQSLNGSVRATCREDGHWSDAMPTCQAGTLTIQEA
Excerpt: (§1) GSnP-6 bound to E- and L-selectin with even lower apparent affinity.

[2] = biological target: T2, recombinant human P-selectin Fc chimera (human, UniProt P16109 42-771); assay: Biacore; biotinylated glycopeptide captured on a streptavidin chip, hP-sel-Ig flowed over (trace shown at 20 µg/ml) [lower left panel 'hP-sel-Ig (20 µg/ml)' (D in the legend]
T2 construct: also called P-sel-Ig; recombinant Ig chimera of P-selectin
Excerpt: as §1

T2 sequence (P16109 42-771, change not shown): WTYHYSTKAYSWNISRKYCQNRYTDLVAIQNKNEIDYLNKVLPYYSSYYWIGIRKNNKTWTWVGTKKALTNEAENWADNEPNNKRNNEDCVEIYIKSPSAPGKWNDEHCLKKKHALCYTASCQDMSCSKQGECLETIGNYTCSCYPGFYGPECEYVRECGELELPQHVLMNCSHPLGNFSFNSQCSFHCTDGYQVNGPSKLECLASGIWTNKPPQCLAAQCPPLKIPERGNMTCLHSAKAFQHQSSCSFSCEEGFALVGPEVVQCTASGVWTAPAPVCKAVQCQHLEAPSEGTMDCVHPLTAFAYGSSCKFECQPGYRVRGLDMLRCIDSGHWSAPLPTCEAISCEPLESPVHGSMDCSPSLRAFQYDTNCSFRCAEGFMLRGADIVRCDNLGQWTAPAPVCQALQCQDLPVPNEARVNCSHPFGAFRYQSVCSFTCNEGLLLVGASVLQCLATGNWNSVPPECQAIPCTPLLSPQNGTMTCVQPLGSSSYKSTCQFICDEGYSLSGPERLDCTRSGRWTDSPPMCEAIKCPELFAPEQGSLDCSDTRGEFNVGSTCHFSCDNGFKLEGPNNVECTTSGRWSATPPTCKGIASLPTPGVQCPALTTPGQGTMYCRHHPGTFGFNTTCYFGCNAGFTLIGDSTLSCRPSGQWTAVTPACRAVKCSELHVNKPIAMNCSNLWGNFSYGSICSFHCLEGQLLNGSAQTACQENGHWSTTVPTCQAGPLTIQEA

EYEYLDYDFLPET(Core‑2 O‑glycan hexasaccharide with sLe^x)EPPE (peptide, UniProt Q14242 45-61, looked up, also: tyrosine O-sulfate, positions not given here, Synthetic glycosulfopeptide) [GSP-6]
Kd [1]: ~128 nM
Kd [2]: ~9 nM
